Target: pMHC monomer containing HLA-A*02:01 restricted NY-ESO-1 C9V peptide (human)
Test: capture of TCR-transduced PBMCs on pMHC-labeled nanovials (20 µg/ml pMHC), flow cytometry

1G4 TCR
fraction of bound live cells with NGFR expression: 93.9%

From US20260218282A1
